Like-named read-outs stand apart in the source and are kept apart here. No end group written: not given here.

Test [1] deals with T1, PfCSP peptide 25 (Plasmodium falciparum, UniProt Q7K740, position 102 (from Pro to Val)).
T1 chain: NVDPNANPNVDPNAN
As to the kind of experiment: ELISA.

The target in test [2] is recombinant PfCSP (rPfCSP), Plasmodium falciparum circumsporozoite protein residues 21-375 (Plasmodium falciparum 3D7 (clone of …, UniProt Q7K740)). The experiment in a line: ITC. Background: ITC needs no label: the signal is the heat of the interaction.
Test [3] has as its target T2, biotinylated peptide 21 (Plasmodium falciparum, also: biotin, position not given here).
T2 chain: NPDPNANPNVDPNAN
As to the kind of experiment: BLI. On the technique in general: In BLI a coated tip is dipped into the sample, and binding shifts an interference pattern.

In test [4] the target is T3, PfCSP peptide 20 (Plasmodium falciparum).
T3 chain: PADGNPDPNANPNVD
The experiment in a line: crystal structure.

Test [5] deals with T1, PfCSP peptide 25. The experiment in a line: crystal structure.
Test [6] has as its target T3, PfCSP peptide 20. The experiment in a line: crystal structure.
Test [7] has as its target T1, PfCSP peptide 25. The experiment in a line: crystal structure.

B1: mAb CIS43 (antibody, V domains shown)
VH: QVQLVQSGAEVKKPGASVKVSCKASGYTFTSYAIHWVRQAPGQRLEWMGWIKAGNGNTRYSQKFQDRVTITRDTSTTTAYMELSSLRSEDTAVYYCALLTVLTPDDAFDIWGQGTMVTVSS
VL: not shown
The Kd is the constant that tells how readily two partners part at equilibrium. Consider B1, for which, in test [1], the binding result is listed as “binds”. Moreover, in test [2], the “KD of the first binding event” value was 7.9 nM and the “KD of the second binding event” value was 42 nM. In test [3], the Kd is < 0.001 nM.

B2: CIS43 Fab (Fab, V domains shown)
VH: QVQLVQSGAEVKKPGASVKVSCKASGYTFTSYAIHWVRQAPGQRLEWMGWIKAGNGNTRYSQKFQDRVTITRDTSTTTAYMELSSLRSEDTAVYYCALLTVLTPDDAFDIWGQGTMVTVSS
VL: not shown
With B2, in test [4], the binding result was “binds”. Besides, the binding result in test [5] was “binds”. Further, in test [2], the “KD of the first binding event” value is 16 nM and the “KD of the second binding event” value was 250 nM.

B3: mAb CIS42 (antibody, V domains shown)
VH: QVQLVQSGSELKKPGASVKVSCKTSGYTFTTYAMNWVRQAPGQGLEWMGWINTNTGNPTYAPGFTGRFVFSFDTSVSTAYLQISSLKAEDTAVYYCARVYSYGVPFDYWGQGTLVTVSS
VL: QSVLTQPASVSGSPGQSITISCTATSSNVGSFNLVSWYQHHPGKAPKLIIHEVSKRPSGASNRFSGSKSGNTASLTISGLQAEDEADYYCCSYVGSDTWVFGGGTKLTV
What is called stoichiometry N is a count of units in the complex or per binding partner. Take B3: in test [2], the Kd stood at 51 nM and the “stoichiometry N” value was 7.

B4: CIS42 Fab (Fab, V domains shown)
VH: QVQLVQSGSELKKPGASVKVSCKTSGYTFTTYAMNWVRQAPGQGLEWMGWINTNTGNPTYAPGFTGRFVFSFDTSVSTAYLQISSLKAEDTAVYYCARVYSYGVPFDYWGQGTLVTVSS
VL: QSVLTQPASVSGSPGQSITISCTATSSNVGSFNLVSWYQHHPGKAPKLIIHEVSKRPSGASNRFSGSKSGNTASLTISGLQAEDEADYYCCSYVGSDTWVFGGGTKLTV
Regarding B4, the binding result in test [6] and in test [7] was “binds” in each case.
